Changes are numbered by the printed parent chain. Names and notes keep the numbering of the source.
Experiments:
[1] = target: T1, Flag-tagged hPER1 (human Period 1, full-length open reading frame, amino acids 1 to 1289), O15534
T1 chain: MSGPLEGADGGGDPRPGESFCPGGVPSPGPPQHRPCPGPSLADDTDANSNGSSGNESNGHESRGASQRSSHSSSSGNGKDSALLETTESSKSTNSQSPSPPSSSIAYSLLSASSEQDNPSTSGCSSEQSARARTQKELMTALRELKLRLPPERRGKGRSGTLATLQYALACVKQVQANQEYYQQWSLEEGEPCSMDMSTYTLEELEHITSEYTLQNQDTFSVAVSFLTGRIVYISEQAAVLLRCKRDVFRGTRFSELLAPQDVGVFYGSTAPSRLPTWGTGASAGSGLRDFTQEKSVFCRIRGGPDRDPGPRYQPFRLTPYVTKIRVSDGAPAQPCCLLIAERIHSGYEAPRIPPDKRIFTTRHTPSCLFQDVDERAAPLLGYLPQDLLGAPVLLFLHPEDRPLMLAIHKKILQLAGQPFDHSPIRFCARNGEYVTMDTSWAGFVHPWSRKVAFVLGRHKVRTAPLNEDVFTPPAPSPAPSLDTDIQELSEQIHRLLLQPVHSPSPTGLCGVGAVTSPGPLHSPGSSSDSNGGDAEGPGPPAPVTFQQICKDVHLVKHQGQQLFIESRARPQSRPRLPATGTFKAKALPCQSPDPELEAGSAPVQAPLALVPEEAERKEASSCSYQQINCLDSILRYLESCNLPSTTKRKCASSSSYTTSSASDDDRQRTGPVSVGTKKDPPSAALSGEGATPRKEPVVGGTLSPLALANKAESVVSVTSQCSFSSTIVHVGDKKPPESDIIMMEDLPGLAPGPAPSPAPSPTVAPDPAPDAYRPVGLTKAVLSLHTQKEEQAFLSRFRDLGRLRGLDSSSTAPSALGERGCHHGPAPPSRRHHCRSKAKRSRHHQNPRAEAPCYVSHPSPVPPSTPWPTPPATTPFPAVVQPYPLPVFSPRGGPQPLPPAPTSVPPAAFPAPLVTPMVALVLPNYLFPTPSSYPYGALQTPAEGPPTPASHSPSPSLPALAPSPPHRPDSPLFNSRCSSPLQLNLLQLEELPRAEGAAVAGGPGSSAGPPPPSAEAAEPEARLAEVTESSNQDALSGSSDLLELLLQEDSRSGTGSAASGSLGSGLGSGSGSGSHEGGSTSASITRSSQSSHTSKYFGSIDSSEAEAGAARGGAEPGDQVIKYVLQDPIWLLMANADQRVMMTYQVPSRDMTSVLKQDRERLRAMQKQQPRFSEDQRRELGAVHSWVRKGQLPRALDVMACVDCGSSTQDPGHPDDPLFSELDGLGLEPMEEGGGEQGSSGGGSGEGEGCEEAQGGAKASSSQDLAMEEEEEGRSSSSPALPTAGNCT

[2] = target: T2, hPER2-C-terminal YGFP protein (human Period 2, full-length ORF), O15055
T2 sequence (O15055 whole entry, looked up): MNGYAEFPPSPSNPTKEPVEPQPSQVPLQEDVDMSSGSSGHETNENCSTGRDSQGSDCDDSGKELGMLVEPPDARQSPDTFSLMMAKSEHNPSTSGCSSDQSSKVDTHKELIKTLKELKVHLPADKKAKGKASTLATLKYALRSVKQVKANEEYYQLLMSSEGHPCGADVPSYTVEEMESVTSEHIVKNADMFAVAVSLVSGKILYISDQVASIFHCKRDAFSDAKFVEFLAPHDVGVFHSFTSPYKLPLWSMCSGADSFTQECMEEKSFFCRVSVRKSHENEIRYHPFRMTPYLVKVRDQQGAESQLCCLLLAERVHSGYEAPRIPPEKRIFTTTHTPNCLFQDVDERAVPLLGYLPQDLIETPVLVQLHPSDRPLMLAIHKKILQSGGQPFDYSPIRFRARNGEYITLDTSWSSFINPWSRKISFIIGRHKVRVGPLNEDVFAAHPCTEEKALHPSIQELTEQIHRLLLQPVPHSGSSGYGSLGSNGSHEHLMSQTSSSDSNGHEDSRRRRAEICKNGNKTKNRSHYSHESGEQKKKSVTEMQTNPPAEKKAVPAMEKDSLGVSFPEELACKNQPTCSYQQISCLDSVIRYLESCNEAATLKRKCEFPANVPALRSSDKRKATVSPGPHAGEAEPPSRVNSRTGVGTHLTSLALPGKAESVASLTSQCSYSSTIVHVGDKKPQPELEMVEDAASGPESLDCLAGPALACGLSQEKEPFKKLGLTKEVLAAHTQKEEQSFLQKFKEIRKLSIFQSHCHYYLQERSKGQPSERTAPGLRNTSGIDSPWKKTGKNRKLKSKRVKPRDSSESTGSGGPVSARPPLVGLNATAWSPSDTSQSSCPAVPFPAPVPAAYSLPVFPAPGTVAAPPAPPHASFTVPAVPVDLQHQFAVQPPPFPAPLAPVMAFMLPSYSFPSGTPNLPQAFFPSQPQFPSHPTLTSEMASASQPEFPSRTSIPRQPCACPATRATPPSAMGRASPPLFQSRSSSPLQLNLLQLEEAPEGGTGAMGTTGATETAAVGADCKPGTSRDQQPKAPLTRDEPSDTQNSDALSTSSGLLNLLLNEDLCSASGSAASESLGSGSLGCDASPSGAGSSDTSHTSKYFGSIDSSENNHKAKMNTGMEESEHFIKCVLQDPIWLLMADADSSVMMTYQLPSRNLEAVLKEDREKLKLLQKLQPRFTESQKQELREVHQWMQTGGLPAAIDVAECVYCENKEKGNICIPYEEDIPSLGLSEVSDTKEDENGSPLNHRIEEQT

GST-IkBα, sequence (P25963 whole entry): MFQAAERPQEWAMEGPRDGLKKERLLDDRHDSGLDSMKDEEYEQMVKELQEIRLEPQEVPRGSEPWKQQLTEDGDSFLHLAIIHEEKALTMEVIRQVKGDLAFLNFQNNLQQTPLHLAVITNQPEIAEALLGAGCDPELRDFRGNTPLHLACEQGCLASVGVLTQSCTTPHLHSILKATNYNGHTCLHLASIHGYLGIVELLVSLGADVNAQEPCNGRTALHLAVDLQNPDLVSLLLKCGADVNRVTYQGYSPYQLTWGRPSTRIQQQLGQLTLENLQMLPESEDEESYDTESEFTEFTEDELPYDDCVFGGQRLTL

B1: recombinant his-tagged wild-type hCKIε, expressed in E. coli and purified (protein)
chain: MELRVGNKYRLGRKIGSGSFGDIYLGANIASGEEVAIKLECVKTKHPQLHIESKFYKMMQGGVGIPSIKWCGAEGDYNVMVMELLGPSLEDLFNFCSRKFSLKTVLLLADQMISRIEYIHSKNFIHRDVKPDNFLMGLGKKGNLVYIIDFGLAKKYRDARTHQHIPYRENKNLTGTARYASINTHLGIEQSRRDDLESLGYVLMYFNLGSLPWQGLKAATKRQKYERISEKKMSTPIEVLCKGYPSEFSTYLNFCRSLRFDDKPDYSYLRQLFRNLFHRQGFSYDYVFDWNMLKFGAARNPEDVDRERREHEREERMGQLRGSATRALPPGPPTGATANRLRSAAEPVASTPASRIQPAGNTSPRAISRVDRERKVSMRLHRGAPANVSSSDLTGRQEVSRIPASQTSVPFDHLGK
in vitro kinase assay, 32P autoradiography (GST-IkBα): Recombinant hCKIε phosphorylates both casein and IkBα substrates | in vitro kinase assay, 32P autoradiography (casein): Recombinant hCKIε phosphorylates both casein and IkBα substrates | in vitro kinase assay, 32P autoradiography [1]: The presence of hCKIε results in phosphorylation of hPER1

B2: hCKIε-K38R, kinase-negative mutant of hCKIε, expressed in 293T cells (protein)
chain: B1 chain with K38R
P32 incorporation into hPER2 in cpm [2]: 3000 cpm | Shift in hPER2 migration [2]: -

B3: recombinant histidine-tagged hCKIε-K38R, expressed in bacteria and purified (protein)
chain: B1 chain with K38R
in vitro kinase assay, 32P autoradiography (GST-IkBα): does not phosphorylate either casein or GST-IkBα substrates | in vitro kinase assay, 32P autoradiography (casein): does not phosphorylate either casein or GST-IkBα substrates | in vitro kinase assay, 32P autoradiography [1]: hCKIε-K38R has no kinase activity towards hPER1

B4: HA-tagged hCKIε (human casein kinase I ε, wild type, expressed from pCEP4-CKIε in 293T cells) (protein)
chain: YPDYDVPDYAMELRVGNKYRLGRKIGSGSFGDIYLGANIASGEEVAIKLECVKTKHPQLHIESKFYKMMQGGVGIPSIKWCGAEGDYNVMVMELLGPSLEDLFNFCSRKFSLKTVLLLADQMISRIEYIHSKNFIHRDVKPDNFLMGLGKKGNLVYIIDFGLAKKYRDARTHQHIPYRENKNLTGTARYASINTHLGIEQSRRDDLESLGYVLMYFNLGSLPWQGLKAATKRQKYERISEKKMSTPIEVLCKGYPSEFSTYLNFCRSLRFDDKPDYSYLRQLFRNLFHRQGFSYDYVFDWNMLKFGAARNPEDVDRERREHEREERMGQLRGSATRALPPGPPTGATANRLRSAAEPVASTPASRIQPAGNTSPRAISRVDRERKVSMRLHRGAPANVSSSDLTGRQEVSRIPASQTSVPFDHLGK
P32 incorporation into hPER2 in cpm [2]: 5000 cpm | Shift in hPER2 migration [2]: + | P32 incorporation [1]: co-transfection of hPER2 or hPER1 with CKIe resulted in the incorporation of p32 into both PER proteins
